The values that follow are results of earlier work, collected in paper PMC9760969.

A word on the Kd: it is a measure of binding affinity in units of concentration.

The target of the series is CD95L (Homo sapiens) (UniProt P48023).
Sequence of UniProt P48023 (P48023 130-281): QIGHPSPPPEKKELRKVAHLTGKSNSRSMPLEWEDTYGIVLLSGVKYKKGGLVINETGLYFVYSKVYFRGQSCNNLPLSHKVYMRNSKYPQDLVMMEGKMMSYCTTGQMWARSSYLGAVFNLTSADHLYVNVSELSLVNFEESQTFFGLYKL

For the substance DR5 (from UniProt O14763), the Kd is 1.23 pM.
